Data taken from US20190062420A1 (Janssen / Centocor, published 2019).

Tests used:
[1] = target: T1, human FcγRIIB (NM_004001) expressed on cells (human, UniProt P31994 43-310); assay: flow cytometry; Raji cells (express predominantly FcγRIIB)
T1 construct: Transiently expressed on Expi293F cells; also called Expi293F FcγRIIB; HEK293F cells expressing FcγRIIB
T1 sequence: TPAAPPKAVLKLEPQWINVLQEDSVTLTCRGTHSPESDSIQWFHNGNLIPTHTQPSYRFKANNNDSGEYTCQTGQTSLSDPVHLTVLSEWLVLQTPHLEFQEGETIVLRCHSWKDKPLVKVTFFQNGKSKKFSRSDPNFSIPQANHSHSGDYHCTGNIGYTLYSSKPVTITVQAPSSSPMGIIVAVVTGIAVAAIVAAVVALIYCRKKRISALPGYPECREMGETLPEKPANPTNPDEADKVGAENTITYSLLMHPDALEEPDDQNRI
Experimental: (§1) 2×10⁵ cells per well were seeded in 96-well plate and blocked in BSA Stain Buffer (BD Biosciences, San Jose, USA) for 30 min at 4° C. Cells were incubated with test mAbtyrin on ice for 1.5 h at 4° C. After being washed twice with BSA stain buffer, the cells were incubated with R-PE labeled anti-human or anti-mouse IgG secondary antibody (Jackson Immunoresearch Laboratories) for 45 min at 4° C. The cells were washed twice in stain buffer and then resuspended in 150 μL of Stain Buffer containing 1:200 diluted DRAQ7 live/dead stain (Cell Signaling Technology, Danvers, USA). PE and DRAQ7 signals of the stained cells were detected by Miltenyi MACSQuant flow cytometer (Miltenyi Biotec, Auburn, USA) using B2 and B4 channel respectively. Live cells were gated on DRAQ7 exclusion and the geometric mean fluorescence signals were determined for at least 10,000 live events collected. FlowJo software (Tree Star) was used for analysis. Data was plotted as the logarithm of antibody concentration versus mean fluorescence signals. Nonlinear regression analysis was performed by GraphPad Prism 6 (GraphPad Software, Inc.) and EC₅₀ values were calculated.
Raji cell is a cell line derived from B cells that express predominantly FcγRIIB. The binding of mAbtyrins on Raji cells were investigated by flow cytometry assay described for testing mAbtyrin binding to FcγR. Binding of the mAbtyrins were detected by flow cytometry using a PE-labeled Goat F(ab′) against Human IgG(γ).

[2] = target: T2, human FcγRIIA (NM_021642) expressed on cells (human, UniProt P12318 36-317); assay: flow cytometry; Expi293F cells transfected with FcγRIIA
T2 construct: Transiently expressed on Expi293F cells; also used here for FcγRIIA on human macrophages in the ADCP assay; also called Expi293F FcγRIIA; HEK293F cells expressing FcγRIIA
T2 sequence: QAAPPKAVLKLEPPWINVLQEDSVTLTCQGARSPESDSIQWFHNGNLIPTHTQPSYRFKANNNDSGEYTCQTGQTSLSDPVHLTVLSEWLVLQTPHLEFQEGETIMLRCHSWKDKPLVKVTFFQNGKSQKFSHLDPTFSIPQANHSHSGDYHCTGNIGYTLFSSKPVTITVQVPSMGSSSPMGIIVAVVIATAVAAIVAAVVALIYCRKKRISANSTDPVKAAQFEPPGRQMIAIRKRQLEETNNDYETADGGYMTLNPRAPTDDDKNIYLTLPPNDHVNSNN

[3] = target: T1, human FcγRIIB (NM_004001) expressed on …; assay: flow cytometry; Expi293F cells transfected with FcγRIIB
Experimental: Plasmids expressing cDNAs encoding human FcγRI (NM_000566) (SEQ ID NO: 44), FcγRIIA (NM_021642) (SEQ ID NO: 2), FcγRIIB (NM_004001) (SEQ ID NO: 3), and FcγRIIIA (NM_000569) (SEQ ID NO: 45) (Origene) were transiently transfected into Expi293F cells by ExpiFectamine293 transfection kit (Life Technologies). Flow cytometry assays were performed 48 h after transfection.
as §1

[4] = target: T1, human FcγRIIB (NM_004001) expressed on …; assay: cell-based or functional assay
[5] = target: T1, human FcγRIIB (NM_004001) expressed on …; assay: flow cytometry; Raji cells (express predominantly FcγRIIB); remark: listed apart in the source
[6] = target: T1, human FcγRIIB (NM_004001) expressed on …; assay: as above; remark: listed apart in the source
How it was run: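 Raji B cells, predominantly FcγRIIB-expressing, BSA-blocked, then incubated with mAbtyrin titrations 1.5 h at 4° C. Bound antibody detected with PE-labeled anti-human IgG F(ab′) 45 min at 4° C. Geometric mean fluorescence from ≥10,000 DRAQ7-excluded live cells; EC₅₀ by nonlinear regression of log concentration.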

FcγRIIA protein = target: T3, FcγRIIA protein (human, UniProt P12318 36-217, biotinylated (SureLINK Biotin Kit) in the ELISA of Example 1); assay: ELISA; FcγRIIA protein coated on plate, anti-human IgG-HRP detection
T3 construct: Soluble/recombinant antigen used in ELISA; also called bt-FcγRIIA; recombinant FcγRIIA protein
T3 sequence: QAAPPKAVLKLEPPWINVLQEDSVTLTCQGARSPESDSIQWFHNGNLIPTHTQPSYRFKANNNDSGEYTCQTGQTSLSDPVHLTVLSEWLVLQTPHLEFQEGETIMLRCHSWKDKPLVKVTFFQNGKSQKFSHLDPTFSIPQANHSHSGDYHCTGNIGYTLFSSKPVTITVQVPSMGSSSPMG
Experimental: Effect of the mAbtyrins on T cell activation was evaluated. Briefly, recombinant FcγRIIB or FcγRIIA protein was coated on the plate to provide the crosslinking activity. For T cell activation assay, 100 μL of 30 ng/mL anti-CD3 antibody (OKT3) and 1 μg/mL FcγRIIB or FcγRIIA protein in DPBS were coated in U-bottomed 96-well tissue culture plate overnight. CD4 positive T cells were isolated from PBMC by negative selection. OX40 expression was induced by culturing the isolated T cells in the presence of 1 μg/mL PHA overnight. On the assay day, the coating solution in the plate were aspirated and 150 μL RPMI media was added to block the plate. The cultured T cells were washed three times by RPMI culture media and between 25,000 to 50,000 CD4 positive T cells were seeded in each well in the assay plate. Test mAbtyrins were added to the cells and the plate was incubated for 3 days. T cell activation was assessed by the induction of IFNγ or TNFα production, which was quantitated by human IFNγ or TNFα ELISA detection kit (Biolegend). Prior to T cell activation assay, the binding affinity of mAbtyrins to immobilized FcγRIIB or FcγRIIA protein were evaluated by an ELISA assay. […] The binding of mAbtyrins to immobilized FcγRIIB or FcγRIIA protein were detected by HRP-conjugated anti-Human IgG(γ) secondary antibody and quantitated by ELISA assay using TMB substrate.

B1: OX40SF2IgG2sigma_R2BS29_HC-C (bispecific antibody)
heavy: QVQLVQSGAEVKKPGSSVKVSCKASGYTFKDYTMHWVRQAPGQGLEWIGGIYPNNGGSTYNQNFKDRVTLTADKSTSTAYMELSSLRSEDTAVYYCARMGYHGPHLDFDVWGQGTTVTVSSASTKGPSVFPLAPCSRSTSESTAALGCLVKDYFPEPVTVSWNSGALTSGVHTFPAVLQSSGLYSLSSVVTVPSSNFGTQTYTCNVDHKPSNTKVDKTVERKCCVECPPCPAPPAAASSVFLFPPKPKDTLMISRTPEVTCVVVDVSAEDPEVQFNWYVDGVEVHNAKTKPREEQFNSTFRVVSVLTVLHQDWLNGKEYKCKVSNKGLPSSIEKTISKTKGQPREPQVYTLPPSREEMTKNQVSLTCLVKGFYPSDIAVEWESNGQPENNYKTTPPMLDSDGSFFLYSKLTVDKSRWQQGNVFSCSVMHEALHNHYTQKSLSLSPGKGGGGGSGGGGSGGGGSGGGGSLPAPKNLVVSRVTEDSARLSWTAPDAAFDSFPIYYWEYRVGGEAIVLTVPGSERSYDLTGLKPGTEYFVYINGVKGGEESRPLSAIFTT
light: DIQMTQSPSSLSASVGDRVTITCKASQDVGAAVAWYQQKPGKAPKLLIYWASTRHTGVPSRFSGSGSGTDFTLTISSLQPEDFATYYCQQYINYPLTFGGGTKVEIKRTVAAPSVFIFPPSDEQLKSGTASVVCLLNNFYPREAKVQWKVDNALQSGNSQESVTEQDSKDSTYSLSSTLTLSKADYEKHKVYACEVTHQGLSSPVTKSFNRGEC
notes: mAbtyrin: anti-OX40 antibody OX40SF2, effector silent IgG2sigma, with linker and R2BS29 FN3 domain at the C-terminus of the heavy chain; also called mAbtyrin
An EC50 [1] of 1.44 µg/mL, an EC50 [2] of 0.091 µg/mL and an EC50 [3] of 1.52 µg/mL were found for B1 in this work. For the same binder, the “fold of agonism enhancement upon crosslinking (Daudi cells)” value [4] was 45 fold, the “fold binding signal over OX40SF2IgG2sigma at 10 µg/mL” value [5] was ≥ 6 fold and the “Binding to Raji cells mean signals at 10 µg/ml” value [6] was 11900 mean fluorescence signal. It also gave an EC50 [6] of 1.44 µg/mL.

B2: OX40SF2IgG2sigma (antibody)
heavy: QVQLVQSGAEVKKPGSSVKVSCKASGYTFKDYTMHWVRQAPGQGLEWIGGIYPNNGGSTYNQNFKDRVTLTADKSTSTAYMELSSLRSEDTAVYYCARMGYHGPHLDFDVWGQGTTVTVSSASTKGPSVFPLAPCSRSTSESTAALGCLVKDYFPEPVTVSWNSGALTSGVHTFPAVLQSSGLYSLSSVVTVPSSNFGTQTYTCNVDHKPSNTKVDKTVERKCCVECPPCPAPPAAASSVFLFPPKPKDTLMISRTPEVTCVVVDVSAEDPEVQFNWYVDGVEVHNAKTKPREEQFNSTFRVVSVLTVLHQDWLNGKEYKCKVSNKGLPSSIEKTISKTKGQPREPQVYTLPPSREEMTKNQVSLTCLVKGFYPSDIAVEWESNGQPENNYKTTPPMLDSDGSFFLYSKLTVDKSRWQQGNVFSCSVMHEALHNHYTQKSLSLSPGK
light: B1 light
notes: Anti-OX40 antibody, IgG2 sigma isotype (effector silent Fc: V234A, G237A, P238S, H268A, V309L, A330S, P331S against wild type IgG2); control without FN3 domain; also called parental antibody; parental OX40 antibody
With B2 the EC50 [1] was > 10 µg/mL, the EC50 [2] was > 10 µg/mL and the “fold of agonism enhancement upon crosslinking (Daudi cells)” value [4] was 1 fold. For the same binder, the “Binding to Raji cells mean signals at 10 µg/ml” value [6] was 330 mean fluorescence signal, the EC50 [6] was > 10 µg/mL and the binding result (FcγRIIA protein) was “no binding”.
